From publication PMC3930447 come the findings set out here.

The assay deals with GST-Dip1 (S. pombe) (S. pombe) (UniProt O74771). Kind of assay: pull-down.
UniProt O74771, sequence (O74771 whole entry): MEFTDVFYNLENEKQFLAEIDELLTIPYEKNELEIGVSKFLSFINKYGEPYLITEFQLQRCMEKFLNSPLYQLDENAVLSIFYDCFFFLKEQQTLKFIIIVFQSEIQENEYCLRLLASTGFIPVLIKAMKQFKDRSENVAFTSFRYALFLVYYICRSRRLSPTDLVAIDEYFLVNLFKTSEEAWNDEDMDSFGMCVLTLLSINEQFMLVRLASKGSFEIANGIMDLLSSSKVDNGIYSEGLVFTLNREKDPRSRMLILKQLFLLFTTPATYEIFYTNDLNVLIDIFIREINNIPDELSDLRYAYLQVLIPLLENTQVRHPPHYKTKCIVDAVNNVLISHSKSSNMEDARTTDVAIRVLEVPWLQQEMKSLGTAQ

Regarding “S. pombe Arp2/3 complex (from UniProt Q9UUJ1 1-390)”, the percent pulled down came to 20%.
